The values below come from patent US20040009166A1.

In assay [1] the target is Recombinant human TNF-alpha (Pierce, cat # RTNFA50) (human) (UniProt P01375). The experiment in a line: SPR (BiaCore X), rhTNF-alpha immobilized on CM5 chip, SCA as analyte, 1:1 fit. For orientation: Surface plasmon resonance follows binding to a sensor surface in real time, without labels.
Assay [2] shares this target. The experiment in a line: cell-based or functional assay.

Chain of UniProt P01375 (P01375 whole entry, form in doubt): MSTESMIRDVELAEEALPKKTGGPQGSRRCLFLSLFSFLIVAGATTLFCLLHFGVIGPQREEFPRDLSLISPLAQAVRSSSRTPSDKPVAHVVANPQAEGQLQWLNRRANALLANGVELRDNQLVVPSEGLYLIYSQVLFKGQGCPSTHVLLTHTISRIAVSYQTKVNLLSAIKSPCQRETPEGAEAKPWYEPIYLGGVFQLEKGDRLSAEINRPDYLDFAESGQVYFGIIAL

What is called Kd is the equilibrium constant for the complex coming apart. The term koff denotes the first-order rate constant of dissociation. The kon is the second-order rate constant of association. On to “2-7-SC-2 SCA (D2E7 SCA, VL-218-VH-his6, C-terminus Cys), native (scFv)”, for which, in assay [1], the Ka stood at 8.36e+08 M⁻¹, the Kd is 1.2 nM, the koff is 0.000392 s⁻¹ and the kon was determined as 328000 M⁻¹ s⁻¹. Also, in assay [2], the IC50, TNF-sensitive cell rescue assay, after 5 cycles of freeze-thaw turned out to be 225 nM; the IC50, TNF-sensitive cell rescue assay, after 10 cycles of freeze-thaw stood at 0.302 µg/mL; the IC50 values (to rescue 50% WEHI-13VAR cells from killing by 1.0 ng/ml TNF) worked out at 3.05 nM.

Take “2-7-SC-3 SCA (D2E7 SCA, VH-(GGGGS)3-VL-his6, C-terminus Cys), native (scFv)”: in assay [1], the Ka was 1.1e+08 M⁻¹, the Kd is 9.05 nM, the koff was found to be 0.000416 s⁻¹ and the kon came to 46400 M⁻¹ s⁻¹.

Consider “2-7-SC-4 SCA (D2E7 SCA, VL-218-VH, no his tag, C-terminus Cys), native (scFv)”, for which, in assay [1], the Ka stood at 5.49e+08 M⁻¹, the Kd was 1.82 nM, the koff was determined as 0.000495 s⁻¹ and the kon stood at 272000 M⁻¹ s⁻¹. Also, the IC50 Values (cell rescue of WEHI-13VAR cells from TNF-alpha) in assay [2] was determined as 7.18 nM.

As to “2-7-SC-5 SCA (D2E7 SCA, VL-218-VH-his6, Cys at linker position 2), native (scFv)”, in assay [1], the Ka was determined as 1.55e+10 M⁻¹, the Kd turned out to be 0.0644 nM, the koff was 1.12e-05 s⁻¹ and the kon came out at 173000 M⁻¹ s⁻¹. In assay [2], the IC50 Values (cell rescue of WEHI-13VAR cells from TNF-alpha) was determined as 4.18 nM.

Regarding “2-7-SC-7 SCA (D2E7 SCA, VH-(GGGGS)3-VL-his6, Cys at linker position 2), native (scFv)”, in assay [1], the Ka worked out at 1.19e+10 M⁻¹, the Kd was 0.0843 nM, the koff was determined as 2.96e-06 s⁻¹ and the kon came to 35100 M⁻¹ s⁻¹.
